Laboratory results taken from patent US20200129532.

Biological target: T1, HA-tagged VDR (vitamin D receptor), wild type, P11473
T1 chain: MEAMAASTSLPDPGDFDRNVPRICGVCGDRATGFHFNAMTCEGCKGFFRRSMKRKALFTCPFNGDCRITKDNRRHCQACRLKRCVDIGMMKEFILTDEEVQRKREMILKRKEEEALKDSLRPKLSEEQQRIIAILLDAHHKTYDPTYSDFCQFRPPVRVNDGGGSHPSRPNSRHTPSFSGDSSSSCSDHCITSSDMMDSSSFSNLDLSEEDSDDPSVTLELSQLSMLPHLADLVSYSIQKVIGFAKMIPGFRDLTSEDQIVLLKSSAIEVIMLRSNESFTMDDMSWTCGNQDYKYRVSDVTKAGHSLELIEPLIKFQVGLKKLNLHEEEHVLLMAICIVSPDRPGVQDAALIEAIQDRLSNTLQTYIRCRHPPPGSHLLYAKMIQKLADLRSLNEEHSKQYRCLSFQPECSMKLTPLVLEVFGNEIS

B1: PCAF, wild-type, overexpressed in 293T cells (protein)
chain: MSEAGGAGPGGCGAGAGAGAGPGALPPQPAALPPAPPQGSPCAAAAGGSGACGPATAVAAAGTAEGPGGGGSARIAVKKAQLRSAPRAKKLEKLGVYSACKAEESCKCNGWKNPNPSPTPPRADLQQIIVSLTESCRSCSHALAAHVSHLENVSEEEMNRLLGIVLDVEYLFTCVHKEEDADTKQVYFYLFKLLRKSILQRGKPVVEGSLEKKPPFEKPSIEQGVNNFVQYKFSHLPAKERQTIVELAKMFLNRINYWHLEAPSQRRLRSPNDDISGYKENYTRWLCYCNVPQFCDSLPRYETTQVFGRTLLRSVFTVMRRQLLEQARQEKDKLPLEKRTLILTHFPKFLSMLEEEVYSQNSPIWDQDFLSASSRTSQLGIQTVINPPPVAGTISYNSTSSSLEQPNAGSSSPACKASSGLEANPGEKRKMTDSHVLEEAKKPRVMGDIPMELINEVMSTITDPAAMLGPETNFLSAHSARDEAARLEERRGVIEFHVVGNSLNQKPNKKILMWLVGLQNVFSHQLPRMPKEYITRLVFDPKHKTLALIKDGRVIGGICFRMFPSQGFTEIVFCAVTSNEQVKGYGTHLMNHLKEYHIKHDILNFLTYADEYAIGYFKKQGFSKEIKIPKTKYVGYIKDYEGATLMGCELNPRIPYTEFSVIIKKQKEIIKKLIERKQAQIRKVYPGLSCFKDGVRQIPIESIPGIRETGWKPSGKEKSKEPRDPDQLYSTLKSILQQVKSHQSAWPFMEPVKRTEAPGYYEVIRFPMDLKTMSERLKNRYYVSKKLFMADLQRVFTNCKEYNPPESEYYKCANILEKFFFSKIKEAGLIDK
VDR acetylation: VDR acetylation indeed increased when expressed together with PCAF
